Source: US10501502B2, “Allophycocyanin alpha-subunit evolved labeling proteins (smURFPs)” (The Regents of the University of California, priority 2016, dated 2019)

Tests used:
HEK293A cells = assay: Fluorescence imaging of FPs in HEK293A cells with chromophore addition or HO-1 expression; type: cell-based; settings: smURFP/TDsmURFP in HEK293A cells
Source text: smURFP codons were optimized for human cell expression, and the gene was created by GenScript. smURFP, TDsmURFP (created from mammalian-optimized smURFP), IFP1.4 (mammalian-optimized form^35), IFP2.0 (mammalian-optimized form^46), and iRFP713 (mammalian-optimized form^36) were PCR amplified using Phusion High-Fidelity DNA Polymerase (NEB) with primers containing 5′ HindIII and 3′ XhoI restriction enzyme sites. HindIII-HF and XhoI (NEB)-digested PCR fragments were gel purified (Zymoclean Gel DNA Recovery Kit) and were ligated (T4 DNA Ligase, Life Technologies) into a similarly digested pCDNA3-IRES-eGFP vector (bicistronic to express two FPs in the same cell). For creation of HO-1-expressing mammalian vec-tors, the Synechocystis HO-1 was used, and the codons were not optimized for mammalian expression. Synechocystis HO-1 was directly amplified from the pBAD vector using primers containing 5′ BsiWI and 3′ XbaI restriction enzyme sites. pCDNA3 smURFP, TDsmURFP, IFP1.4, IFP2.0, or iRFP713-IRES-eGFP vectors were digested with BsiWI and XbaI (NEB), dephosphorylated (SAP, Roche), gel purified (Zymoclean Gel DNA Recovery Kit), and ligated (T4 DNA Ligase, Life Technologies) with similarly digested, purified HO-1 PCR fragment. For creation of smURFP fusions, smURFP was PCR amplified using Phusion High-Fidelity DNA Polymerase (NEB) with primers containing 5′ AgeI and 3′ NotI restriction enzyme sites for N-terminal fusions or with primers containing 5′ AgeI and 3′ BspEI restriction enzyme sites for C-terminal fusions. mGeos2-VEL-ManII-N-10 (Addgene 57551) and Dronpa-PDHA1-N-10 (Addgene 57292) vectors were digested with AgeI and NotI (NEB) and mCherry-αTubulin-C-18 (Addgene 55148) and tdTomato-LaminB1-10 (Addgene 58107) were digested with AgeI and BspEI, dephosphorylated (SAP, Roche), gel purified (Zymoclean Gel DNA Recovery Kit), and ligated (T4 DNA Ligase, Life Technologies) with similarly digested, purified smURFP PCR fragment. HEK293A (Invitrogen, Life Technologies), HT1080 (ATCC), and PC3 (ATCC) cells were grown in Dulbecco's Modified Eagle's medium (DMEM, Corning), supplemented with 10% FBS (Atlanta Biologicals)+1×penicillin—streptomycin (Fisher Scientific), which is referred to as growth media, on poly-D-lysine-coated glass-bottom culture dishes (MatTek, No. P35G-0-14-C). The HEK cell line is listed in the ICLAC and NCBI biosample databases and is commonly misidentified as the HeLa cell line. For expression of exogenous fluorescent proteins, there is no problem if there is a contaminating cell line because no endogenous biology or therapeutic results are being determined. HEK293A cells were purchased from Invitrogen (Life Technologies), and all experiments are derived from the same expanded frozen stock without cell line authentication or mycoplasma detection. Cells were transfected using 2 μg of circular DNA+5 μl Lipofectamine 2000 (Life Technologies) in 2 ml Opti-MEM (Life Technologies) for 4-5 h, transfection media was discarded, and prewarmed growth media was added. Chromophores (5 mM in DMSO) were added at indicated concentrations to growth media, warmed for 10-15 min at 37° C., and added to cells. For multiple timepoints, incubations were staggered to maintain equivalent incubation. Prior to imaging, cells were washed 1×2 ml growth media, 2×2 ml imaging solution, and imaged in 2 ml imaging solution. Fluorescence imaging was performed on a Zeiss Axiovert 200M inverted microscope controlled by SlideBook software. FPs were imaged with the following settings: eGFP, EX/EM=495(10)/535(25) nm, tdTomato EX/EM=540(25)/595(50) nm; mCherry and mCardinal, EX/EM=580(20)/653(95) nm; smURFP and TDsmURFP, EX/EX=628(40)/680(30) nm; and IFP1.4, IFP2.0, and iRFP713, EX/EM=665(45)/725(50) nm. […]

Escherichia coli = assay: Fluorescence of FPs expressed in Escherichia coli; type: cell-based
Method: TeAPCα gene (codons optimized for Escherichia coli) was made by GenScript. Mutations were placed by random mutagenesis using GeneMorphII Random Mutagenesis Kit (Agilent Technologies). Screens for mutants that fluoresce with PCB or BV were performed by subcloning into a pBAD vector (Life Technologies) that expressed cyanobacteria Synechocystis HO-1 and Synechocystis PcyA genes for PCB production and Synechocystis HO-1 only for BV production, as previously described^34. Libraries were expressed in TOP 10 Electrocompetent Escherichia coli cells (Life Technologies) with addition of 0.2% arabinose to LB agar plates (FPs were constitutively expressed in Escherichia coli). Fluorescence was imaged on plates using a BioSpectrum AC Imaging System (UVP) with EX/EM=628(40)/690(50) nm for FPs+PCB, EX/EM=685(40)/710LP nm for rounds 4 and 5 FPs+BV, and EX/EM=650(13)/690(50) nm for Cy5-like FPs+BV (rounds 6-12). At round 6, 5-10 of the brightest colonies on each plate were combined in LB+0.2% arabinose, grown ˜18 h, mixture of plasmid DNA was purified, and TOP10 cells were transformed and plated on LB agar plates+0.2% arabinose. Fluorescence was screened on plates (as described above), 10-20 of the brightest colonies were screened in liquid culture fluorescence (FIG. 7a-e), plasmid DNA was purified, and DNA was sequenced. The plasmid DNA of 2-3 of the brightest FPs was chosen for mutagenesis for the subsequent round. When choosing DNA for subsequent mutagenesis rounds, genes with increased and/or novel silent DNA mutations were chosen over other DNA that had the same DNA and/or protein sequence of the previous round. Site-specific mutagenesis was performed using QuikChange Lightning Mutagenesis Kit (Agilent Technologies) to create smURFP (C4S mutation) and smURFP C52S.

[1] = FP purification and fluorescence characterization in vitro (spectra, extinction coefficient, quantum yield); type: physicochemical; settings: for Molecular Brightnes Relative to smURFP / Emission Maximum / Excitation Maximum / Extinction Coefficient / Quantum Yield: Table 4; for Emission Maximum / Excitation Maximum / Extinction Coefficient / Quantum Yield: evolved APCα FPs
Method: FP genes were expressed on a pBAD vector (Life Technologies) with a polyhistidine tag on the C terminus, cells were lysed with B-PER (Thermo Scientific), and purified using Ni-NTA (Qiagen) puri-fication. PCB (HO-1+PcyA) and BV (HO-1) incorporation in Escherichia coli was performed simultaneously during constitu-tively active FP expression. Extinction coefficient was determined by PCB or BV absorbance as described35,36 (Table 3, smURFP+BV and TDsmURFP+BV, and Table 2) or calculated for the apoproteins by determining the protein concentration by the BCA protein assay (Pierce), and a specific chromo-phore concentration was added (specified in the Purification of FP lacking chromophore and in vitro chromophore incorporation section) to get 1 and 2 chromophore species (Table 5, not including (Escherichia coli)). When FP chromophore (PCB or BV) was expressed in Escherichia coli, the PCB and BV Q band had absorbance that overlapped with detection of BCA or Bradford assay of 562 nm and 592 nm, respectively. We used the previously published protocols35,36, where there was no change of the BV absorbance at 390 nm when free in solution or attached to the FP. smURFP+BV denaturation with 1 M urea caused no change in the BV absorbance at 390 nm, but the Q band was reduced ˜20-fold. Therefore, the extinction coefficient of BV at 390 nm was used to calculate the concentration of holoprotein (FP+PCB or BV) concentration.
EX and EM spectra were obtained using SPEX Fluorolog fluorometer (Horiba). Absorbance spectra were obtained using UV-VIS Spectrophotometer Cary Eclipse (Varian) or UV-2700 (Shimadzu). Quantum yield was determined relative to Cy5. Incorporation rates of BV on 0.5 μM smURFP was performed by addition of smURFP to PBS alone or with 20% fetal bovine serum (FBS) and mixed by pipetting in a quartz cuvette. Chromophore was added last, mixed by pipetting, and fluorescence was recorded using SPEX Fluorolog fluorometer (Horiba). Photobleaching was characterized on bubbles of purified FP or Cy5 within mineral oil using light from a 150 W xenon arc lamp with 100% light through EX/EM=628(40)/680(30) nm for smURFP, TDsmURFP, and Cy5 or EX/EM=665 (45)/725 (50) nm for IFP 1.4 focused with a 40×, 1.2 numerical aperture C-Apochromat oil-immersion lens on a Zeiss Axiovert 200M inverted microscope. Photobleaching times were normalized to reflect an initial illumination intensity producing 1,000 photons per fluorescent molecule per second as previously described^37.
HO-1 was removed by digesting the pBAD vector (Life Technology) with MscI and PmeI (NEB). smURFP and TDsmURFP were expressed and purified as described above. No chromophore was present on smURFP and TDsmURFP (confirmed by UV, fluorescence imaging, and MS). For predominant fluorescent species+2 chromophores, a ten-fold excess of chromophore was added to smURFP and TDsmURFP. For predominant fluorescent species+1 chromophore, a quarter concentration of chromophore was added to smURFP and TDsmURFP. Chromophore was added in PBS+10% FBS at 37° C. overnight. smURFP+chromophore and TDsmURFP+chromophore were purified using NiNTA (Qiagen) to remove excess or noncovalently attached chromophore.

Row | Molecule | chromophore concentration reaching saturation of fluorescence (HEK293A cells) | chromophore concentration required for fluorescence similar to 2.5 μM BVMe2 (HEK293A cells) | fluorescence when expressed in E. coli (qualitative) (Escherichia coli) | fold brighter than R1+PCB (Escherichia coli; expressed in E. coli) | extinction coefficient (EC) [1] | quantum yield (QY) [1] | Molecular Brightnes Relative to smURFP [1] | Emission Maximum [1] | Excitation Maximum [1] | Extinction Coefficient [1] | Quantum Yield [1] | red-shift of excitation and emission relative to R3-2+PCB [1]
1 | C=CC1=C(C)/C(=C/C2=NC(=C\c3[nH]c(/C=C4/NC(=O)C(C)=C4C=C)c(C)c3CCC(=O)OC)/C(CCC(=O)OC)=C2C)NC1=O [BVMe2, biliverdin dimethylester, reference compound] | ≤ 2.5 µM | – | – | – | – | – | – | – | – | – | – | –
2 | phycocyanobilin [PCB, reference compound] | – | ≥ 40 µM | – | – | – | – | – | – | – | – | – | –
3 | TeAPCα: Trichodesmium erythraeum allophycocyanin α-subunit, nonfluorescent parent protein, SEQ ID NO: 1 (protein, smRUFP Variant Polypeptide) MKTGEQRVKIATLLSENEKKIVDKASQDLWRRRPDFIAPGGNAFGQRERALCLRDYGWYLRLITYGLLAGDKDPIESIGLIGVREMYNSLGVPVPGMVESIRCLKEASLSLLDEEDAKETAPYFDYIIQAMS | – | – | showed no fluorescence | – | – | – | – | – | – | – | – | –
4 | R2-1 + PCB: evolved APCα FP, SEQ ID NO: 3, with PCB (protein, phycocyanobilin chromophore; smRUFP Variant Polypeptide) MKTGEQRVKIATLLSENEKKIVDKASQDLWRRRPDFIAPGGIAFGQRERALCLRDYGWYLRLITFCLLAGDKDPIESIGLIGVREMYNSLGVPVPGMVESIRCLKEASLSLLDEEDAKETAPYFDYIIQAMS | – | – | lacked fluorescence with BV | 27 fold | 65,000 M^−1cm^−1 | 7.2% | 14% | 648 nm | 626 nm | 65,000 M^−1 cm^−1 | 7.2% | –
5 | R5-2: evolved APCα FP, SEQ ID NO: 6, with BV (protein, biliverdin chromophore; smRUFP Variant Polypeptide) MKTCEQRVKIATLLSENEKKIVDKASQDLWRRRPDFIAPGGIAFSQRERALCLRDHRWYLHLITFCLLAGDKDPIESIGLIGIREMYNSLGVPVPGMMESIRCLKEASLSLLDEEDAKETAPYFDYIIKAMS | – | – | – | – | 71,000 M^−1cm^−1 | 5.3% | 12% | 696 nm | 671 nm | 71,000 M^−1 cm^−1 | 5.3% | ~49 nm
6 | R6-6: evolved APCα FP, SEQ ID NO: 7, with BV (protein, biliverdin chromophore; smRUFP Variant Polypeptide) MKTCEQRVKIATLLSENEKKIVDKASQDLWRRRPDLIAPGGIAFSQRERALCLRDYGWYLHLITFCLLAGDKGPIESIGLIGIREMYNSLGVPVPGMMESIRCLKEASLSLLDEEDAKETAPYFDYIIKAMS | – | – | – | – | 190,000 M^−1cm^−1 | 9.6% | 56% | 676 nm | 648 nm | 190,000 M^−1 cm^−1 | 9.6% | –
